Assay results taken from patent US12624123B2, “Compositions and methods for reducing off-target toxicity of antibody drug conjugates” (The Research Foundation for The State University of New York, priority 2019, dated 2026).
“And” between values parts separate entries of the source, which are not always exact repeats. Identical values can stand only once. “Also recorded” adds a separate entry of the source.

Tests used:
SK-BR-3 cells [1] = test: MTT cytotoxicity assay in SK-BR-3 cells; assay type: cell-based; details: 24 h exposure, 10 μM sdAb
Method: Positive clone sdAbs' DNA in pComb3XSS plasmid was isolated and transferred into pET-22b expression vector in SHuffle cells for expression. SK-BR-3 cells were used to test the anti-DM4 sdAbs effect on DM4 cytotoxicity. Briefly, 2,500 cells/well were seeded into a 96-well plate and allowed to adhere for 24 h before cell culture media was aspirated and replaced with 100 μL of fresh media solution containing with or without 10 μM of anti-DM4 sdAb and a range of DM4 concentration for another 24 h exposure period. The cells were then washed 2 times before replacing with fresh media and allowed to grow for additional 72 h.

[2] = Competitive ELISA with free DM4; assay type: binding
Method: To determine the binding affinity of the anti-DM4 sdAbs to DM4-conjugates and free DM4, indirect ELISA and competitive ELISA were employed. Briefly, ELISA plate were coated overnight with 100 μL of neutravidin at different concentration ranging from 1 μg/mL to 10 μg/mL. After blocking with 200 μL of 2% skimmed milk-PBST for 1 h, 100 μL of 1 μM biotin-DM4 solution was added into each well and incubated for 30 min, then 100 μL of purified anti-DM4 sdAb solution at concentration ranging from 0.1 nM to 1 μM was added and incubated for 1 h. Bound sdAbs were detected with HRP conjugated anti-His antibody and TMB substrate. After the linear range of binding was determined via the indirect ELISA, a concentration of anti-DM4 sdAb near the IC50 of binding was selected to proceed with competitive ELISA. For the competitive ELISA, anti-DM4 sdAb concentration was held constant as determined from the indirect ELISA and incubated with increasing concentration of DM4 ranging from 0.1 nM to 1 μM.

SK-BR-3 cells [3] = test: MTT cytotoxicity assay in SK-BR-3 cells; assay type: cell-based; details: 10 μM DMFH1
KG-1 cells = test: MTT assay with DMFH1 in AML cell line KG-1; details: KG-1, 48-hour exposure, 10 μM DMFH1
Method: (§1) MTT Cell based assay with DMFH1 in AML cell lines. Cell cytotoxicity of DM4 on MOLM-14, KG-1, Kasumi-3, MV-4-11 cells with and without 10 μM of DMFH1 sdAb over a 48-hour exposure periods.

MOLM-14 cells = test: MTT assay with DMFH1 in AML cell line MOLM-14; details: MOLM-14, 48-hour exposure, 10 μM DMFH1
Method: as §1

MV-4-11 cells = test: MTT assay with DMFH1 in AML cell line MV-4-11; details: MV-4-11, 48-hour exposure, 10 μM DMFH1
Method: as §1

Kasumi-3 cells = test: MTT assay with DMFH1 in AML cell line Kasumi-3; details: Kasumi-3, 48-hour exposure, 10 μM DMFH1
Method: as §1

B1: DMFH1 (protein)
VHH: QVQLQESGGGLVQPGGSLRLSCAASGSIFGISYMGWYRQAPGKQREPVAMITSGGSTYYADSVKGRVTISRDNAKKTVYLQMNSLRPEDASTYYCAAGCYRSDSPNRYDYWGQGTQVTVSS
modifications: DMFH1
Fold shifted (DM4 IC50) (SK-BR-3 cells [1]): 254 fold and 250.5 fold | Kd ([2]; free DM4, read-out: Estimated KD): 11 nM and 10.5 nM | IC50 ([2]; read-out: Estimated binding affinity IC50 to free DM4): 11 nM | effect on Trastuzumab Emtansine (T-DM1) cytotoxicity (SK-BR-3 cells [3]): did not alter the cytotoxicity; also recorded: did not change T-DM1 cytotoxicity significantly | fold shift of DM1 IC50 (SK-BR-3 cells [3]; 24 h): 85.6 fold | fold shift of DM4 IC50 (KG-1 cells): 57.2 fold | fold shift of DM4 IC50 (MOLM-14 cells): 60.7 fold | fold shift of DM4 IC50 (MV-4-11 cells): 50.9 fold | fold shift of DM4 IC50 (Kasumi-3 cells): 38.3 fold
